Experiment [1] addresses T1, Recombinant Cox11, purified (mouse) (UniProt Q6P8I6).
T1 sequence (Q6P8I6 whole entry, looked up): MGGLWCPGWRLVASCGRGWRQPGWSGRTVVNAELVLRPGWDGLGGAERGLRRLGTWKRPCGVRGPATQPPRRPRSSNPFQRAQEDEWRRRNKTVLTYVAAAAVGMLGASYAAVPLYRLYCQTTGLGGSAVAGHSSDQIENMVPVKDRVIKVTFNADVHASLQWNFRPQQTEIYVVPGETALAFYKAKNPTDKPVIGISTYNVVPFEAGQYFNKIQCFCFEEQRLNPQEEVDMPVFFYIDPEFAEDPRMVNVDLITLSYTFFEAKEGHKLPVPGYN

The target of a further experiment is Hexokinase type I (HKI) (UniProt P17710).
Sequence of UniProt P17710 (P17710 other isoform, or with tags, fused parts or gaps): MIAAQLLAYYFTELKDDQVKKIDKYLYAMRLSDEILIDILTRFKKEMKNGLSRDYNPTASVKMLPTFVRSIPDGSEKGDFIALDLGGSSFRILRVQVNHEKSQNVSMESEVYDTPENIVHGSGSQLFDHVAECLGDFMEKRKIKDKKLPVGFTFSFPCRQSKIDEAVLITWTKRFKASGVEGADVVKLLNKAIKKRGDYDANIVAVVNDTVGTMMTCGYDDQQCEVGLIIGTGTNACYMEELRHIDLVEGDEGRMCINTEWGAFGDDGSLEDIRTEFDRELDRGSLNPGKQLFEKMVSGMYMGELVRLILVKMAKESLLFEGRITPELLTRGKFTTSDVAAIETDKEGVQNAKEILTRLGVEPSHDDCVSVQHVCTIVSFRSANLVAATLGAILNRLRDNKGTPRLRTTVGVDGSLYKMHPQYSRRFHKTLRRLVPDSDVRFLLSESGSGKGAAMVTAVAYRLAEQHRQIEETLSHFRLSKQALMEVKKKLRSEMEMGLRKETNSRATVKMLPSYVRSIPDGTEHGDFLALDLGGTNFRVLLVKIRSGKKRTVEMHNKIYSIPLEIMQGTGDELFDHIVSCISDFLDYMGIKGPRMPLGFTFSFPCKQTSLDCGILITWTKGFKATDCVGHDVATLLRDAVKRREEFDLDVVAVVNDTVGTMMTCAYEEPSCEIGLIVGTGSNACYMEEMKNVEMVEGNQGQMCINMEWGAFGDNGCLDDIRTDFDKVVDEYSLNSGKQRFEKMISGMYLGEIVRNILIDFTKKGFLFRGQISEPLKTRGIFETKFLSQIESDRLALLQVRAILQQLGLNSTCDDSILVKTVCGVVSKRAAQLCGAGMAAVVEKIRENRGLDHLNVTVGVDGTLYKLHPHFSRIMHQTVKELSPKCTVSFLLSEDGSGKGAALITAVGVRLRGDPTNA

In the case of “GST-LD, leucine-rich domain of RanBP2 fused to glutathione S-transferase (from UniProt P49792 62-711) (domain or fragment)”, the reversal by increasing LD of the inhibition of HKI activity by 7.5 nM Cox11 at saturating glucose; half-maximal effect in experiment [1] is 0.05 nM. “Recombinant Cox11, purified (from UniProt Q6P8I6 75-275) (natural protein)” displayed an HKI enzymatic activity (initial rates versus glucose, 0.24 ug HKI) with 0.25, 7.5 and 15 nM Cox11; concentration of Cox11 at which no activity was recorded with Hexokinase type I (HKI) of 15 nM.
